According to PMC7707817:

How the values were obtained:
[1] = biological target: ClpP+C (E. coli ClpP C91V, C113A with a cysteine appended after Asn193) (E. coli); test: SEC; Superdex-200 of the quenched cross-linking reaction; 50 mM HEPES-KOH pH 7.5, 300 mM NaCl, 20 mM MgCl2, 10% glycerol, 2 mM TCEP; peak 2 = uncrosslinked ClpP+C
[2] = biological target: ClpP+C (E. coli ClpP C91V, C113A with a cysteine appended after Asn193) (E. coli); test: cross-linking; E613CClpA‡ (4 µM) and ClpP+C (9.6 µM) mixed; 50 mM HEPES-KOH pH 7, 300 mM NaCl, 20 mM MgCl2, 10% glycerol, 5 mM EDTA; 5 mM ATPγS, 200 µM bismaleimidoethane (BMOE), room temperature, 45 min; quenched with 50 mM DTT; peak-1 pool of Superdex-200 SEC read by reducing SDS-PAGE (Coomassie)

Row | stoichiometry N [1] | percent of ClpA crosslinked to ClpP [2] | Substance
1 | 14 |  | ClpP+C (E. coli ClpP C91V, C113A with a cysteine appended after Asn193) (enzyme)
2 |  | 90% | E613C ClpA‡ (E. coli ClpAΔC9 with C47S, C203S, C243S and E613C) (from UniProt P0ABH9 1-749) (enzyme)
